Reference: publication PMC7353164

Target: Tim21HA (yeast) (UniProt P53220)
Assay: co-IP

Sequence of UniProt P53220 (P53220 71-239): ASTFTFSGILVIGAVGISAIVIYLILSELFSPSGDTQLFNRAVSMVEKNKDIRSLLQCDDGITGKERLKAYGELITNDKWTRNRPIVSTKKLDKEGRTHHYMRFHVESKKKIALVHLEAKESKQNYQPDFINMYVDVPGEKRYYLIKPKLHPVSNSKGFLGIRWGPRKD

percent reduction of co-precipitation against wild type: 50%
Substance: Mgr2 G26L (from UniProt Q02889 1-113) (natural protein)
